This is an account of results in doi:10.64898/2025.12.30.697132.

Assay [1] deals with XCL1 R23A,R43A (human) (UniProt P47992). Description: 19F NMR.
For assay [2] the target is unchanged. Kind of assay: 19F NMR. This is another data set of the same source.

Read-outs that look alike come from different tables or passages of the source.

Consider “XCL1 R23A,R43A (from UniProt P47992 22-93) (domain or fragment)”, for which the percent of the protein in the dimer fold worked out at 26% with XCL1 R23A,R43A (human) [1] and 20% with XCL1 R23A,R43A (human) [2].
